Source: patent US11040083B2, “Polypeptides comprising vinculin binding sites for the treatment of proliferation and/or adhesion related diseases” (PARIS SCIENCES ET LETTRES—QUARTIER LATIN, priority 2015, dated 2021)
Values joined by “and” are separate entries in the source; they are usually repeats but may differ in a detail not shown here. Equal values may be shown once. Read-outs that look alike come from different tables or passages of the source.

B1: A524: IpaA 524-633, containing only IpaA VBS1 and VBS2 (protein, listed as Shigella flexneri)
chain: KSKDITKSTTEHRINNKLKVTDANIRNYVTETNADTIDKNHAIYEKAKEVSSALSKVLSKIDDTSAELLTDDISDLKNNNDITAENNNIYKAAKDVTTSLSKVLKNINKD
modifications: A524 / IpaA (524-633)
notes: IpaA 524-633, containing only IpaA VBS1 and VBS2
B2: A483: amino acids 483 to 633 of SEQ ID NO: 1 (IpaA), containing IpaA VBS1, VBS2 and VBS3 (protein, listed as Shigella flexneri)
chain: GDTYLTRETIFEASKKVTNSLSNLISLIGTKSGTQERELQEKSKDITKSTTEHRINNKLKVTDANIRNYVTETNADTIDKNHAIYEKAKEVSSALSKVLSKIDDTSAELLTDDISDLKNNNDITAENNNIYKAAKDVTTSLSKVLKNINKD
modifications: A483 / IpaA (483-633)

Key:
[1] = Size exclusion chromatography, hydrodynamic radius; type: physicochemical; details: for Radiusm (estimated hydrodynamic radius): SEC Superdex 75, 20 μM equimolar
Experimental: The purified proteins HVD1, A483, A524 and Talin H1-H4 were used at an equimolar concentration of 20 μM and incubated at 4° C. for one hour in binding buffer. The protein mixtures (200 μL) were injected in a FPLC chromatography system (FPLC Pharmacia) at 16° C. in a Superdex 75 HR 10/30 column (GE Healthcare) previously equilibrated with 10 volumes of binding buffer. The SEC system was calibrated with a Low Molecular Weight Gel Filtration Kit (ref. 17-0442-01, GE Healthcare) and the hydrodynamic radius (Angstroms) of the reference proteins (BSA, OVA, ChyA and RibA) correlated with the elution volume (Ve) using an Euler exponential equation: Hydrodynamic radius (Ang)=210.46 e^−0.189 Ve (mL), with a correlation squared coefficient of R^2=0.9973. Fractions corresponding to elution volume 8-10 mLs were recovered, and analyzed by SDS-PAGE using 15% polyacrylamide gels.

[2] = test system: melanocytes; test: Matrigel invasion assay; type: cell-based; details: 24-hour incubation, three independent experiments
Experimental: Cells were transfected by GFP-A524, GFP-A483 or Mock-transfected (without DNA, as a control).
Cells were further trypsinized, collected, and deposited in a matrigel insert. Following a 24-hour incubation, the matrigel was remove, the membrane was fixed and processed for fluorescence straining of cell nuclei with DAPI. Cells that transmigrated across the matrigel were scored (FIG. 24B).

[3] = target: T1, talin H1-H4 (Homo sapiens, UniProt Q9Y490); test: Isothermal titration calorimetry; type: binding; details: 25° C.; for ΔG free enthalpy / ΔH enthalpy / −TΔS entropic contribution / Kd: ITC; for Kd: read-out: KD (affinity constant)
T1 sequence (Q9Y490 482-636): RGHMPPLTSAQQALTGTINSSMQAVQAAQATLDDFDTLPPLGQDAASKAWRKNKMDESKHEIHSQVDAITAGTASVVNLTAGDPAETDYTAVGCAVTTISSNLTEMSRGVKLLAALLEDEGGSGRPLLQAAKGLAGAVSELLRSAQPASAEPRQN
Experimental: Vinculin, IpaA proteins and peptides were extensively dialyzed in binding buffer (25 mM Tris pH 7.4, 100 mM NaCl and 1 mM β-Mercaptoethanol). The final concentration of all proteins/peptides was measured using a BCA test (Thermo Scientific). Talin-IpaA binding was measured by microcalorimetry using an ITC200 calorimeter (MicroCal) at 25° C. 200 μL of 20-100 μM of talin H1-H4 protein was added to the cell and binding in the presence of different concentrations of IpaA VBS1, VBS2 or VBS3 peptides was measured. In other experiments, 200 μL of a 16 μM equimolar mix of A483:HVD1 was incubated for one hour at room temperature prior to addition to the cell. Binding to talin H1-H4 (100 μM) was measured. Typically, 20-40 injections of 2 μL of ligand were made with intervals of 320 seconds between each addition, with a reference power of 12 μcal/sec. Data were analyzed using the MicroCal software provided by manufacturer.

[4] = target: T2, full-length vinculin (HV) (Homo sapiens, UniProt P18206); test: ELISA solid phase binding assay; details: IpaA construct immobilized on the solid phase, HV as soluble ligand
T2 construct: with full-length vinculin (HV) in solid phase assays
T2 sequence (P18206 1-1066 isoform P18206-2): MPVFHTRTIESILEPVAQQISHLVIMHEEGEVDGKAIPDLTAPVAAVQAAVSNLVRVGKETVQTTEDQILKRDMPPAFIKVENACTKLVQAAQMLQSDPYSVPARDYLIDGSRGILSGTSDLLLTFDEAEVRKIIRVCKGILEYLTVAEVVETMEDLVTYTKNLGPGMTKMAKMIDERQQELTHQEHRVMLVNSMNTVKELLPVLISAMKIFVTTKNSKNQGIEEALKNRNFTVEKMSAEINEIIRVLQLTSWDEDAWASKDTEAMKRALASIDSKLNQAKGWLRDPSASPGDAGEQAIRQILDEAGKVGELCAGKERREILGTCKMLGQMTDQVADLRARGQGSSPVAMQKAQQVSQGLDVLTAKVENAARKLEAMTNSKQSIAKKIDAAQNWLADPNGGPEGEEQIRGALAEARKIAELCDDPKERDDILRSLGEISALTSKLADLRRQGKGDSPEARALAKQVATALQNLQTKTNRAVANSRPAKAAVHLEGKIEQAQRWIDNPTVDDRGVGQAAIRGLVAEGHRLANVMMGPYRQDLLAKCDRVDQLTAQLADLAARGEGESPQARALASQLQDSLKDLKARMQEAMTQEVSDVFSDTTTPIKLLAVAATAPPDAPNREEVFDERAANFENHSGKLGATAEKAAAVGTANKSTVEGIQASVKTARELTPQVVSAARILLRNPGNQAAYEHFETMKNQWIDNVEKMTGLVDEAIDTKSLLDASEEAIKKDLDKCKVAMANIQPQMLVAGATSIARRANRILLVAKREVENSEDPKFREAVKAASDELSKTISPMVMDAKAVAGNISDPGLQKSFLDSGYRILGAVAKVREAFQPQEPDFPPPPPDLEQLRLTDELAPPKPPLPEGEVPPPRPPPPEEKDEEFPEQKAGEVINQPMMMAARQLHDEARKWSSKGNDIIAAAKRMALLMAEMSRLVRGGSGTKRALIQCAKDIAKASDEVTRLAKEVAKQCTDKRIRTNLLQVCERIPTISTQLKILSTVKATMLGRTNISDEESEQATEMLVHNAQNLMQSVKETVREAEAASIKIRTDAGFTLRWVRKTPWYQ
Experimental: 96-well Maxisorp (Nunc) ELISA plates were coated with 30 nM full-length vinculin, vinculin constructs or IpaA proteins in binding buffer (25 mM Tris pH 7.4, 100 mM NaCl and 1 mM β-Mercaptoethanol). The wells were blocked with PBS-BSA 2%, washed and incubated with half series dilutions of IpaA or vinculin proteins in binding buffer+0.2% BSA at room temperature for one hour. After incubation the plates were washed and incubated with an anti-IpaA (dilution: 1/2000) polyclonal primary antibody (Tran Van Nhieu et al., 1997. EMBO J. 16(10):2717-29) or anti-vinculin (dilution: 1/2000) m11.5 monoclonal primary antibody (ref. V4505, Sigma-Aldrich) in binding buffer+0.2% BSA for one hour at room temperature. Plates were washed and incubated with an HRP-coupled secondary anti-rabbit or anti mouse Ig antibodies (dilution: 1/32000, Jackson ImmunoResearch) for one hour.

[5] = target: T1, talin H1-H4; test: SEC-MALS; type: binding; details: 20 μM equimolar
Experimental: The purified proteins IpaA 483-633 (A483), IpaA 524-633 (A524) and Talin H1-H4 (TlnH1-H4) were used at 20 μM equimolar concentrations and incubated at 4° C. for one hour in binding buffer (25 mM Tris-HCL pH 7.0, 100 mM NaCl and 1 mM β-Mercaptoethanol). The protein mixtures (200 μL) were analyzed by size-exclusion chromatography (SEC) on a Superdex 200 10/300 GL (GE Healthcare) using a Shimadzu Prominence HPLC. Multi-angle laser light scattering (MALS) was measured with a MiniDAWN TREOS (Wyatt Technology). Refractometry was monitored using an Optilab T-rEX (Wyatt Technology).

Molecule	Radiusg (hydrodynamic radius of a globular protein with the same MW) [1] [Ang]	Radiusm/Radiusg (RH/RG ratio) [1]	Radiusm (estimated hydrodynamic radius) [1] [Ang]	number of cells which migrated across a matrigel [2] [cells]	N (stoichiometry) ([3]; ITC non-linear fit)	ΔG free enthalpy [3] [kcal/mol]	ΔH enthalpy [3] [kcal/mol]	−TΔS entropic contribution [3] [kcal/mol]	Kd [3] [nM]	ligand concentration at which the saturation curve plateaus [4] [nM]	complex formation with talin H1-H4 in solution [5]	Kd ([3]; listed as A483 (VBS3)) [nM]
B1	15.36	1.88	28.93	96	1.5	-7.448	-3.979	-3.469	2030	25	absence of complex formation	
B2	17.99	1.83 and 1.80	32.86	120		-10.025	-6.229	-3.796	24.9	25	compact globular complex corresponding to one talin H1-H4 dimer bound to one A483 molecule	24.9
